Results on 10 molecules are retold here after patent publication US20060024313A1, “Agents that disrupt dimer formation in DPP-IV family of prolyl dipeptidases” (priority 2004, published 2006).

Changes are numbered by the printed parent chain. Numbers in names are those of the source. Where “and” joins values, the source holds several entries; their conditions need not be identical. Equal entries are not always repeated. Entries after “also recorded” stand apart in the source; their conditions may differ. Marks after values point to notes of the source that are not given here.

A short description of series [1]: Analytical ultracentrifugation (AUC): sedimentation velocity and equilibrium. It counts as physicochemical. The conditions noted are these: for quaternary structure (monomer/dimer) by AUC: PBS buffer where stated; for Stokes' radius (Rs): sedimentation velocity experiments. The procedure: Buffer was changed using an Amicon device and DPP-IV proteins were allowed to equilibrate for at least four hours or longer as indicated in the text at 25° C. after buffer changes. The sedimentation coefficients (S) of the enzyme were estimated by a Beckman-Coulter XL-A analytical ultracentrifuge with an An60Ti rotor as described (25). Sedimentation velocity analysis was performed at 40,000 rpm at 25° C. with standard double sector aluminum centerpieces. The UV absorption of the cells was scanned every 5 min for 4 hours. Sedimentation equilibrium was performed at 20° C. with six-channel open centerpieces and then centrifuged at 12,000 rpm for 12 hours. The data from both sedimentation velocity and sedimentation experiments were analyzed with the SedFit version 8.7 program to obtain molecular weights and sedimentation coefficients (25). Sednterp version 1.07 program is used to obtain solvent density, viscosity, Stokes' radius (Rs) and anhydrous frictional ratio (f/fo).

In series [2] the test system is DPP-IV. The series can be described thus: Kinetic constant measurements with chromogenic substrate H-Gly-Pro-pNA. Format: biochemical, human. As to the method: To measure the kinetic parameters, the chromogenic substrate H-Gly-Pro-pNA was utilized to initiate the reaction, which was monitored at OD 405 nm as a function of time (21). […] The initial rate was measured with less than 10% substrate depletion for the first 10 to 300 seconds. The steady-state parameters, kcat and Km, were determined from initial velocity measurements at 0.5 to 5 Km of the substrate concentrations. Lineweaver-Burk plots were analyzed using non-linear regression of the Michaelis-Menten equation. Correlation coefficients better than 0.99 were obtained throughout.

Series [3] can be described thus: Size exclusion chromatography (gel filtration, Superdex 200). Format: physicochemical. As to conditions: gel filtration experiments; PBS buffer. The procedure: Chemical crosslinking in intact cells was conducted as described (24). Size exclusion chromatography was conducted at 4° C. Purified proteins (0.5 ml at a concentration of 5 uM) were applied to a Superdex 200 10/30 column (10×300-310 mm) pre-equilibrated with PBS. The sample was eluted with the same buffer at 0.3 ml/min and 0.25 ml fractions were collected. The Superdex 200 10/30 column was calibrated with the Stokes Radii of ferritin (6.1 nm), catalase (5.22 nm), aldolase (4.81 nm), albumin (3.55 nm), ovalbumin (3.05 nm) and chymotrypsinogen A (2.09 nm) from Amersham-Pharmacia.
On the technique in general: Size exclusion chromatography separates by hydrodynamic size, large species first.

Setting [4] is: High salt buffer, substrate H-Gly-Pro-pNA.
Setting [5] is: PBS buffer, substrate H-Gly-Pro-pNA.
Setting [6] is: compared with wild type rDPP-IV.
Where [7] appears, read: Table III, dimer form of the mutant.
Where [8] appears, read: Table III, monomer form of the mutant.
Setting [9] is: values in text, monomeric mutants.

B1: H750E: DPP-IV mutant, H750 mutated to Glu; monomer (protein)
chain: SRKTYTLTDYLKNTYRLKLYSLRWISDHEYLYKQENNILVFNAEYGNSSVFLENSTFDEFGHSINDYSISPDGQFILLEYNYVKQWRHSYTASYDIYDLNKRQLITEERIPNNTQWVTWSPVGHKLAYVWNNDIYVKIEPNLPSYRITWTGKEDIIYNGITDWVYEEEVFSAYSALWWSPNGTFLAYAQFNDTEVPLIEYSFYSDESLQYPKTVRVPYPKAGAVNPTVKFFVVNTDSLSSVTNATSIQITAPASMLIGDHYLCDVTWATQERISLQWLRRIQNYSVMDICDYDESSGRWNCLVARQHIEMSTTGWVGRFRPSEPHFTLDGNSFYKIISNEEGYRHICYFQIDKKDCTFITKGTWEVIGIEALTSDYLYYISNEYKGMPGGRNLYKIQLSDYTKVTCLSCELNPERCQYYSVSFSKEAKYYQLRCSGPGLPLYTLHSSVNDKGLRVLEDNSALDKMLQNVQMPSKKLDFIILNETKFWYQMILPPHFDKSKKYPLLLDVYAGPCSQKADTVFRLNWATYLASTENIIVASFDGRGSGYQGDKIMHAINRRLGTFEVEDQIEAARQFSKMGFVDNKRIAIWGWSYGGYVTSMVLGSGSGVFKCGIAVAPVSRWEYYDSVYTERYMGLPTPEDNLDHYRNSTVMSRAENFKQVEYLLIHGTADDNVHFQQSAQISKALVDVGVDFQAMWYTDEDHGIASSTAHQEIYTHMSHFIKQCFSLP
A word on the Km: it is the concentration of substrate that gives half-maximal velocity. Take B1: in series [1] (High salt buffer), the “Sedimentation coefficient (s20, w)” value came to 3.3 S and the “Stokes' radius (Rs)” value is on record as 3.7^b nm. In addition, in series [1] (High salt buffer (0.5 M sodium sulfate)), the “quaternary structure (subunit composition) by sedimentation velocity” value is “monomer”. For the same molecule, in series [1] (PBS buffer), the “Anhydrous frictional ratio (f/fo)” value is listed as 1.3; the “Sedimentation coefficient (s20, w)” value turned out to be 5.5 S; the “Stokes' radius (Rs)” value is 4.0^b nm. Further, in series [1], the “quaternary structure (monomer/dimer) by AUC” value is “consists only of monomer; also recorded: nearly exclusive monomers”. For the same molecule, in series [2] (setting [4]), the Km is 1090 µM and the kcat came out at 2.1 s⁻¹. In series [2] (setting [5]), the Km was 956 µM and the kcat amounted to 2.6 s⁻¹. In addition, in series [2] (setting [6]), the decrease in kcat stood at 30 fold and the “increase in Km” value was 10 fold. For the same molecule, the “AUC analysis or catalytic activities in low salt buffer” value in series [2] (low salt buffer compared to PBS buffer (data not shown)) is reported as “no differences”. Besides, the “Stokes' radius (Rs)” value in series [3] is 4.6 nm and 4.6^a nm.

B2: 730A: DPP-IV C-terminal loop mutant, F730 substituted with Alanine (protein)
chain: B1 chain with F692A, E712H
For the molecule B2, in series [1], the “quaternary structure (monomer/dimer) by AUC” value is “mixture with both monomers and dimers”. In series [2] (setting [7]), the Michaelis-Menten constant (Km) worked out at 56.3 µM and the kcat stood at 27.9 s − 1. In series [2] (setting [8]), the Michaelis-Menten constant (Km) was 53.7 µM and the kcat is listed as 0.2 s − 1.

B3: Y248A: DPP-IV propeller loop mutant, Y248 substituted with Alanine (protein)
chain: B1 chain with Y210A, E712H
For the molecule B3, the “quaternary structure (monomer/dimer) by AUC” value in series [1] was “resulted in monomers; also recorded: monomer”. For the same molecule, in series [2] (setting [9]), the Michaelis-Menten constant (Km) stood at 7 µM and the kcat was 0.01 S^−1.

B4: 724A: DPP-IV C-terminal loop mutant, V724 substituted with Alanine (protein)
chain: B1 chain with V686A, E712H
B4: the “quaternary structure (monomer/dimer) by AUC” value in series [1] was “mixture with both monomers and dimers”. Moreover, in series [2] (setting [7]), the Michaelis-Menten constant (Km) came to 87.5 µM and the kcat came out at 48.3 s − 1. Moreover, in series [2] (setting [8]), the Km is 76.4 µM and the kcat was found to be 0.5 s − 1.

B5: 713A: DPP-IV C-terminal loop mutant, F713 substituted with Alanine (protein)
chain: B1 chain with F675A, E712H
Take B5: the “quaternary structure (monomer/dimer) by AUC” value in series [1] (listed as F713A) is on record as “monomers; also recorded: monomeric DPP-IV”. In addition, the Km in series [2] (setting [8]) was determined as 50.1 µM; in series [2] (setting [9]) it was 51 µM. The kcat in series [2] (setting [8]) is listed as 1.8 s − 1; in series [2] (setting [9]) it was 1 S^−1.

B6: F713R: DPP-IV mutant, F713 substituted with Arginine (protein)
chain: B1 chain with F675R, E712H
Take B6: in series [1], the “quaternary structure (monomer/dimer) by AUC” value is given as “monomeric DPP-IV; also recorded: monomers”. Besides, in series [2] (setting [9]), the Km was found to be 784 µM and the kcat is listed as 2.3 S^−1.

B7: H750A monomer: monomer of H750A DPP-IV separated by gel filtration (protein)
chain: B1 chain with E712A
Regarding B7, in series [1] (High salt buffer), the “Sedimentation coefficient (s20, w)” value is 3.3 S and the “Stokes' radius (Rs)” value is 3.7^b nm. Also, in series [1] (PBS buffer), the “Anhydrous frictional ratio (f/fo)” value is listed as 1.3; the “Sedimentation coefficient (s20, w)” value was 5.5 S; the “Stokes' radius (Rs)” value is 4.1^b nm. Moreover, in series [2] (setting [5]), the Michaelis constant (Km) came out at 64 µM and the kcat was 1.4 s⁻¹. The molecule also showed a decrease in kcat in series [2] (setting [6]) of 60 fold. In addition, the “Stokes' radius (Rs)” value in series [3] was 4.6^a nm.

B8: 734A: DPP-IV C-terminal loop mutant, W734 substituted with Alanine (protein)
chain: B1 chain with W696A, E712H
Consider B8, for which, in series [1], the “quaternary structure (monomer/dimer) by AUC” value was “monomers”. In addition, in series [2] (setting [8]), the Michaelis-Menten constant (Km) came to 90.5 µM and the kcat worked out at 0.3 s − 1.

B9: 735A: DPP-IV C-terminal loop mutant, Y735 substituted with Alanine (protein)
chain: B1 chain with Y697A, E712H
Take B9: in series [1], the “quaternary structure (monomer/dimer) by AUC” value is “monomers”. Also, in series [2] (setting [8]), the Km worked out at 88.6 µM and the kcat is reported as 0.05 s − 1.

B10: DPP 8: member of the DPP-IV family of prolyl dipeptidases (protein)
chain: MAAAMETEQLGVEIFETADCEENIESQDRPKLEPFYVERYSWSQLKKLLADTRKYHGYMMAKAPHDFMFVKRNDPDGPHSDRIYYLAMSGENRENTLFYSEIPKTINRAAVLMLSWKPLLDLFQATLDYGMYSREEELLRERKRIGTVGIASYDYHQGSGTFLFQAGSGIYHVKDGGPQGFTQQPLRPNLVETSCPNIRMDPKLCPADPDWIAFIHSNDIWISNIVTREERRLTYVHNELANMEEDARSAGVATFVLQEEFDRYSGYWWCPKAETTPSGGKILRILYEENDESEVEIIHVTSPMLETRRADSFRYPKTGTANPKVTFKMSEIMIDAEGRIIDVIDKELIQPFEILFEGVEYIARAGWTPEGKYAWSILLDRSQTRLQIVLISPELFIPVEDDVMERQRLIESVPDSVTPLIIYEETTDIWINIHDIFHVFPQSHEEEIEFIFASECKTGFRHLYKITSILKESKYKRSSGGLPAPSDFKCPIKEEIAITSGEWEVLGRHGSNIQVDEVRRLVYFEGTKDSPLEHHLYVVSYVNPGEVTRLTDRGYSHSCCISQHCDFFISKYSNQKNPHCVSLYKLSSPEDDPTCKTKEFWATILDSAGPLPDYTPPEIFSFESTTGFTLYGMLYKPHDLQPGKKYPTVLFIYGGPQVQLVNNRFKGVKYFRLNTLASLGYVVVVIDNRGSCHRGLKFEGAFKYKMGQIEIDDQVEGLQYLASRYDFIDLDRVGIHGWSYGGYLSLMALMQRSDIFRVAIAGAPVTLWIFYDTGYTERYMGHPDQNEQGYYLGSVAMQAEKFPSEPNRLLLLHGFLDENVHFAHTSILLSFLVRAGKPYDLQIYPQERHSIRVPESGEHYELHLLHYLQENLGSRIAALKVI
For the molecule B10, the “quaternary structure (monomer/dimer) by AUC” value in series [1] is recorded as “is a dimer; also recorded: exists as a dimer”.
